Laboratory results from publication PMC11329518.

How the values were obtained:
Assay in all cases: fluorescence polarisation
[1] = target: 5'FAM-labeled peptide H3 (1-21)
[2] = target: 5'FAM-labeled peptide H3K9me1
[3] = target: 5'FAM-labeled peptide H3K9me2

Kd [1]: 4.73 µM
Kd [2]: 21.2 µM
Kd [3]: 40.5 µM
B1: GST-ARID1-His (natural protein)
chain: MAGWSMVADEDAVDYSKTPKSLDANRSPESVNPESTGFEKKIKELISLFRPLLDSFLAEFCSADGFLPLPAMTGEGRTVDLFNLFLNVTHKGGFDAVSENGSWDEVVQESGLESYDSASAKLIYVKYLDAFGRWLNRVVAGDTDVSSVELSGISDALVARLNGFLSEVKKKYELRKGRPAKELGAELKWFISKTKRRYDKHHVGKESASNDAVKEFQGSKLAERRLEQIMILESVTQECSSPGKRKRECPLETLKWLSDVAKDPCDPSLGIVPDRSEWVSYGSEEPWKQLLLFRASRTNNDSACEKTWQKVQKMHPCLYDDSAGASYNLRERLSYEDYKRGKTGNGSDIGSSDEEDRPCALVGSKFQAKVPEWTGITPESDSKWLGTRIWPLTKEQTKANLLIERDRIGKGRQDPCGCHNPGSIECVKFHITAKRDKLKLELGPAFYMWCFDVMGECTLQYWTDLELKKIKSLMSSPPSLSPAFIHQAKMILPSKSRGKIVSYFYNVTLLQYRASQSRITPHDIDSDTDQIFLRATENENPAPEANTFQKPALLSPNKKRCR
